Data: PMC2912413

Target: alternative Replication Protein A complex (RPA1, RPA4 and RPA3) (human) (UniProt P27694)
Assay: ELISA

alternative Replication Protein A complex (RPA1, RPA4 and RPA3) (human), sequence (P27694 whole entry, chain 1 of 3): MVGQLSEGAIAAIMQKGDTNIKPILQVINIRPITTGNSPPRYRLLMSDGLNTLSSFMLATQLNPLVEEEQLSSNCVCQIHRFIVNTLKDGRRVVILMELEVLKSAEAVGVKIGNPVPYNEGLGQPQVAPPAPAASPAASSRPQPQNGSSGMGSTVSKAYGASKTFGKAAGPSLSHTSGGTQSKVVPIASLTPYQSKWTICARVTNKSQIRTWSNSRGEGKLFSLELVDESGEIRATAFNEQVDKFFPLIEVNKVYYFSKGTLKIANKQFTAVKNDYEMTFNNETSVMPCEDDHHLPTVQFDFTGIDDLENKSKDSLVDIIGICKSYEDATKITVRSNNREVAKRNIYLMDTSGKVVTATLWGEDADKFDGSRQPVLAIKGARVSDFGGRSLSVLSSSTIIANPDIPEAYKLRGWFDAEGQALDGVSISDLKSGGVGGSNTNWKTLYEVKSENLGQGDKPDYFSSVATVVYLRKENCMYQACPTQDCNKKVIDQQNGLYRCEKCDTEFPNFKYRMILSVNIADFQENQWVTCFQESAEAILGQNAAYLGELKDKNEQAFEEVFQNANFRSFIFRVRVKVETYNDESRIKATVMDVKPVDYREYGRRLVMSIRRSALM
alternative Replication Protein A complex (RPA1, RPA4 and RPA3) (human), sequence (Q13156 whole entry, chain 2 of 3, further chain): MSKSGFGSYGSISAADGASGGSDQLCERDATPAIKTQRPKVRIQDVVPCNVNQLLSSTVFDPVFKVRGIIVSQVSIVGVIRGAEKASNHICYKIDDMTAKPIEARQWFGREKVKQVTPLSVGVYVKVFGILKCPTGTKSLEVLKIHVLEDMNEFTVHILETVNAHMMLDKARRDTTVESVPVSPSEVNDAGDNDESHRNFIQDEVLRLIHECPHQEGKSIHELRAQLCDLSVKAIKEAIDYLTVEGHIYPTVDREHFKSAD
alternative Replication Protein A complex (RPA1, RPA4 and RPA3) (human), sequence (P35244 whole entry, chain 3 of 3, further chain): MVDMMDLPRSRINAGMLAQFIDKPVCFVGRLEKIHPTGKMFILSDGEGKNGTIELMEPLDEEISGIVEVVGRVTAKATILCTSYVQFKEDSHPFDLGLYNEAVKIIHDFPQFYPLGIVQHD

With “human DNA polymerase α/primase complex (from UniProt P09884 1-1462; Q14181 1-598; P49643 1-509; P49642 1-420)” as the substance, how does the percent decrease of the ELISA interaction compared to RPA read?
Its percent decrease of the ELISA interaction compared to RPA is 75%.
